According to patent US20230295338A1 (published 2023):

Legend:
[1] = biological target: T1, human CEACAM1-Fc fusion protein (UniProt P13688 35-428); assay: ELISA
T1 chain: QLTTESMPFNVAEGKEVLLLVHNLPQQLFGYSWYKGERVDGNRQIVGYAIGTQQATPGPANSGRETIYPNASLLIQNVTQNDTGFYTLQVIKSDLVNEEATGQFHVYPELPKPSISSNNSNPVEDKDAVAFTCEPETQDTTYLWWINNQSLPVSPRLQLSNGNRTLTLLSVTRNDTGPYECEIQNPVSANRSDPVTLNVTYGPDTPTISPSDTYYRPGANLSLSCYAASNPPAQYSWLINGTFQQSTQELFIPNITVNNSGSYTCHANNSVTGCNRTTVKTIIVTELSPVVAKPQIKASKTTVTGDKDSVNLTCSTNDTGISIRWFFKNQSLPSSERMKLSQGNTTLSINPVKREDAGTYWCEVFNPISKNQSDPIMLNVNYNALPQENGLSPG

[2] = biological target: T1, human CEACAM1-Fc fusion protein; assay: BLI
CC1-N-Fc = assay: ELISA
recHopQ = recHopQ (Helicobacter pylori); assay: BLI

B1: CC1/3/5-Sab (antibody, V domains shown)
VH: EVQLQQSGPELVKPGTSVKMSCKASGYTFTTYVMHWVQQKPGQGLDWIGFFNPYNDGTKYNEKFKGKATLTSDKSSSTAYMELSSLTSEDSAVYYCARWAYDGSYAYWGQGTTLTVSS
VL: DIQMTQSSSYLSVFLGGRVTITCKASDHINNWLAWYQQKPGNAPRLLISGATSLETGVPSRFSGSGSGKDYTLSIISLQTEDVATYYCQQYWRTPFTFGSGTKLEIK
[1]
  IC50: 0.146 nM
[2]
  Kd: 54 nM

B2: mAb CC1/3/5-Sab (antibody, V domains shown)
VH: B1 VH
VL: B1 VL
CC1-N-Fc
  IC50: 0.107 nM

B3: CEACAM1-Fc (Fc fusion)
chain: T1 chain
recHopQ
  Kd: 183 nM
